Measurements from paper PMC8262878, “GP96 Drives Exacerbation of Secondary Bacterial Pneumonia following Influenza A Virus Infection” (mBio, 2021).

B1: recombinant AliB (natural protein)
chain: CGNSSTASKTYNYVYSSDPSSLNYLAENRAATSDIVANLVDGLLENDQYGNIIPSLAEDWTVSQDGLTYTYKLRKDAKWFTSEGEEYAPVTAQDFVTGLQYAADKKSEALYLVQDSVAGLDDYITGKTSDFSTVGVKALDDQTVQYTLVKPELYWNSKTLATILFPVNADFLKSKGDDFGKADPSSILYNGPFLMKALVSKSAIEYKKNPNYWDAKNVFVDDVKLTYYDGSDQESLERNFTAGAYTTARLFPNSSSYEGIKEKYKNNIIYSMQNSTSYFFNFNLDRKSYNYTSKTSDIEKKSTQEAVLNKNFRQAINFAFDRTSYGAQSEGKEGATKILRNLVVPPNFVSIKGKDFGEVVASKMVNYGKEWQGINFADGQDPYYNPEKAKAKFAEAKKELEAKGVQFPIHLDKTVEVTDKVGIQGVSSIKQSIESVLGSDNVVIDIQQLTSDEFDSSGYFAQTAAQKDYDLYHGGWGPDYQDPSTYLDIFNTNSGGFLQNLGLEPGEANDKAKAVGLDVYTQMLEEANKEQDPAKRYEKYADIQAWLIDSSLVLPSVSRGGTPSLRRTVPFAAAYGLTGTKGVESYKYLKVQDKIVTTDEYAKAREKWLKEKEESNKKAQEELAKHVK
notes: also called Ali protein; source: E. coli XL10-Gold, pQE30 vector, purified (QIAexpress protein purification system)
B2: recombinant AliA (natural protein)
chain: CSGSGSSTKGEKTFSYIYETDPDNLNYLTTAKAATANITSNVVDGLLENDRYGNFVPSMAEDWSVSKDGLTYTYTIRKDAKWYTSEGEEYAAVKAQDFVTGLKYAADKKSDALYLVQESIKGLDAYVKGEIKDFSQVGIKALDEQTVQYTLNKPESFWNSKTTMGVLAPVNEEFLNSKGDDFAKATDPSSLLYNGPYLLKSIVTKSSVEFAKNPNYWDKDNVHVDKVKLSFWDGQDTSKPAENFKDGSLTAARLYPTSASFAELEKSMKDNIVYTQQDSITYLVGTNIDRQSYKYTSKTSDEQKASTKKALLNKDFRQAIAFGFDRTAYASQLNGQTGASKILRNLFVPPTFVQADGKNFGDMVKEKLVTYGDEWKDVNLADSQDGLYNPEKAKAEFAKAKSALQAEGVQFPIHLDMPVDQTATTKVQRVQSMKQSLEATLGADNVIIDIQQLQKDEVNNITYFAENAAGEDWDLSDNVGWGPDFADPSTYLDIIKPSVGESTKTYLGFDSGEDNVAAKKVGLYDYEKLVTEAGDETTDVAKRYDKYAAAQAWLTDSALIIPTTSRTGRPILSKMVPFTIPFALSGNKGTSEPVLYKYLELQDKAVTVDEYQKAQEKWMKEKEESNKKAQEDLAKHVK
notes: as for B1

Target: T1, recombinant glycoprotein 96 (GP96) (human, UniProt P14625 22-803)
T1 construct: The purification of GP96 and the fate of the GST tag are not described; also called GRP94; Grp94; source: E. coli BL21(DE3), pGEX-6P-1 vector; recombinant protein
T1 sequence (P14625 22-803): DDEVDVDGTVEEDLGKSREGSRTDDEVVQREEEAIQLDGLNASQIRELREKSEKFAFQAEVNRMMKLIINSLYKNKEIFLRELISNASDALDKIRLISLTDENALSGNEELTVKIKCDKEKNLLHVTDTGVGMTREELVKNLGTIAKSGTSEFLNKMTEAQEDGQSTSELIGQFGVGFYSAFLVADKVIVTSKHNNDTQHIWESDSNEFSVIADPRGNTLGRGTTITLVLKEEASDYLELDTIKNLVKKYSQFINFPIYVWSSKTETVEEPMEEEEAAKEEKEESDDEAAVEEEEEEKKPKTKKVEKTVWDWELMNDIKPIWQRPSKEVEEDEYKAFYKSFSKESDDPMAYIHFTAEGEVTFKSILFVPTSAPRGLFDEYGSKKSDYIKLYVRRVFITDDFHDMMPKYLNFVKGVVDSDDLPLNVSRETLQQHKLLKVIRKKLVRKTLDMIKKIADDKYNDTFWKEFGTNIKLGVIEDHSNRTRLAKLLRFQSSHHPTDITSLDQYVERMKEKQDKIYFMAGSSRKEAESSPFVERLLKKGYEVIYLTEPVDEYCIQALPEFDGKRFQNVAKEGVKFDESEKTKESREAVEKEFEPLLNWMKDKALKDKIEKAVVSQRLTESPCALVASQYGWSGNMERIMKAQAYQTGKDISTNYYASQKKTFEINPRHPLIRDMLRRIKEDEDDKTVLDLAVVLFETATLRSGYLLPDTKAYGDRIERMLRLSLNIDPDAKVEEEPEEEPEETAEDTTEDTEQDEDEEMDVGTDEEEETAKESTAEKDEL
Experiment: SPR; BIAcore X-100; GP96 amine-coupled to a CM5 chip; AliA or AliB as analyte at 31.3-500 nM; HBS-P buffer (0.01 M HEPES pH 7.4, 0.15 M NaCl, 0.005% surfactant P20), 37°C, 30 ul/min; 1:1 Langmuir binding model
Details: both partners purified

| Binder | Kd | koff | kon |
| --- | --- | --- | --- |
| B1 | 48.5 nM | 10.1 s⁻¹ | 2.09e+08 M⁻¹ s⁻¹ |
| B2 | 34 nM | 0.000785 s⁻¹ | 23100 M⁻¹ s⁻¹ |
